This is an account of results in paper PMC11821514 (Nature Cell Biology, 2025).

One test deals with T1, StrepII–GFP–Atg11 (budding yeast, UniProt Q12527 1-1178).
T1 construct: Atg11, budding yeast; the ATG11 ORF was subcloned with an N-terminal StrepII–GFP tag into a pLIB vector; Used as preformed condensates (20 min at room temperature in 20 mM HEPES pH 7.5, 150 mM NaCl, 5 mM DTT); also called GFP–Atg11 condensates; GFP–Atg11 droplets; source: Sf9 insect cells, baculovirus, purified (Strep-TactinXT); not shown: GFP, N-terminal, kept
T1 sequence (looked up): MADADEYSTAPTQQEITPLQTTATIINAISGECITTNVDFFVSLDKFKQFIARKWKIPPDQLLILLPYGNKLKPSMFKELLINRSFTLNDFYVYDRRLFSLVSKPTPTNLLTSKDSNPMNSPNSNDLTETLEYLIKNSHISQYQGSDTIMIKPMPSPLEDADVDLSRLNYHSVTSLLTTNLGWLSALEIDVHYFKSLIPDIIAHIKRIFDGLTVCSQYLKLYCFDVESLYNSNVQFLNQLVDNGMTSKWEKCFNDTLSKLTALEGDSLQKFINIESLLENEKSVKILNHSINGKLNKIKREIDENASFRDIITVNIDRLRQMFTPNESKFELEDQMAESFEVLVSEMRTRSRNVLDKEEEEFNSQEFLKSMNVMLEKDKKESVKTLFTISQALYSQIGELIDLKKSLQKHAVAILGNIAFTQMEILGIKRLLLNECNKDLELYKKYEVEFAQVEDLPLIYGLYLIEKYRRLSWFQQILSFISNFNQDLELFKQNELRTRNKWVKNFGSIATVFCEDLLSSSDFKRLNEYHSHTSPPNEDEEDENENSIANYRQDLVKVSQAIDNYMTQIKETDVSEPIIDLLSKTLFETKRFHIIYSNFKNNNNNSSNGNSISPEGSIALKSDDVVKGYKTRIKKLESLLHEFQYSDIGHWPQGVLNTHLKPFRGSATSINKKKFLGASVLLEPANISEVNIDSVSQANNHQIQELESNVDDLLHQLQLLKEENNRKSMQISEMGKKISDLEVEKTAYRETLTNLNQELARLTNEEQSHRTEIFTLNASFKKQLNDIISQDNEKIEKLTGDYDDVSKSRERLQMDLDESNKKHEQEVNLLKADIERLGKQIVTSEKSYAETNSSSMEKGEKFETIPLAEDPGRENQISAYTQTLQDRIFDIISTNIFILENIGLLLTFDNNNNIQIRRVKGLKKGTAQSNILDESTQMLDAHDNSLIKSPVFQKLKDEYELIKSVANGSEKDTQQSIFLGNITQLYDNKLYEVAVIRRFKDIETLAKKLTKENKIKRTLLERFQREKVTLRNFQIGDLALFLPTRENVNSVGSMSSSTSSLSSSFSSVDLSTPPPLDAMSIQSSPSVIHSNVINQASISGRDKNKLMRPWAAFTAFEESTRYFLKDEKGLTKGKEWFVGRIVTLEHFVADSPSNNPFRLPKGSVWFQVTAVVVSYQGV
Description: bead binding assay read by fluorescence microscopy; GST–BFP fusion on GSH beads incubated with preformed GFP–Atg11 condensates (purified by the methods and results, Sf9 lysate by the legends), 20 min at room temperature; imaged before and after eight washes with 20 mM HEPES pH 7.5, 150 mM NaCl, 5 mM DTT. As to conditions: both partners purified.

The target in the next test is T2, GST–Atg11^685–1178 (budding yeast, UniProt Q12527 685-1178).
T2 construct: also called C-terminal fragment of Atg11; not shown: GST, N-terminal, kept
T2 sequence (looked up): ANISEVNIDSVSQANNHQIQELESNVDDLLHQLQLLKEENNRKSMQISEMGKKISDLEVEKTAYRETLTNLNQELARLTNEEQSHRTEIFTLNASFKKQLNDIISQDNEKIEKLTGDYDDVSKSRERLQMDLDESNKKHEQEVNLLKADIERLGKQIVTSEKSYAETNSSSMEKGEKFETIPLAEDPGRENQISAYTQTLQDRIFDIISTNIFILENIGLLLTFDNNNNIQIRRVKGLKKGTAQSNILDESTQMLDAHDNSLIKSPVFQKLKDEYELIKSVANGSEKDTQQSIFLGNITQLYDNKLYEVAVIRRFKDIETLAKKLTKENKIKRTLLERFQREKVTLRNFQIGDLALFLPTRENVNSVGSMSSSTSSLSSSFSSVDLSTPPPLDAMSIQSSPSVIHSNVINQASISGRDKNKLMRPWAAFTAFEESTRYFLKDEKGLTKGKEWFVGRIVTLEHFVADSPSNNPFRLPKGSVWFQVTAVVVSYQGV
The experiment in a line: pull-down; GST fusions on GSH beads incubated with purified recombinant Atg19^3D, 20 min at room temperature; six washes with GST-wash buffer containing 0.02% Tween-20; immunoblotting. As to conditions: both partners purified. A general note: Immunoblotting shows a protein as a band on a membrane.

B1: GST–BFP–Vac8 (natural protein, budding yeast, UniProt P39968 1-578, looked up)
chain: MGSCCSCLKDSSDEASVSPIADNEREAVTLLLGYLEDKDQLDFYSGGPLKALTTLVYSDNLNLQRSAALAFAEITEKYVRQVSREVLEPILILLQSQDPQIQVAACAALGNLAVNNENKLLIVEMGGLEPLINQMMGDNVEVQCNAVGCITNLATRDDNKHKIATSGALIPLTKLAKSKHIRVQRNATGALLNMTHSEENRKELVNAGAVPVLVSLLSSTDPDVQYYCTTALSNIAVDEANRKKLAQTEPRLVSKLVSLMDSPSSRVKCQATLALRNLASDTSYQLEIVRAGGLPHLVKLIQSDSIPLVLASVACIRNISIHPLNEGLIVDAGFLKPLVRLLDYKDSEEIQCHAVSTLRNLAASSEKNRKEFFESGAVEKCKELALDSPVSVQSEISACFAILALADVSKLDLLEANILDALIPMTFSQNQEVSGNAAAALANLCSRVNNYTKIIEAWDRPNEGIRGFLIRFLKSDYATFEHIALWTILQLLESHNDKVEDLVKNDDDIINGVRKMADVTFERLQRSGIDVKNPGSNNNPSSNDNNSNNNDTGSEHQPVEDASLELYNITQQILQFLH
notes: Vac8, vacuolar membrane protein, budding yeast; The results text says GST–Vac8, the legend GST–BFP–Vac8; also called GST–Vac8; recombinant GST–Vac8; not shown: GST, N-terminal, kept; BFP, N-terminal, kept
Take B1: in the test with StrepII–GFP–Atg11, the binding result is “binds”.

B2: Atg19^3D (natural protein, budding yeast, UniProt P35193 1-415, looked up)
chain: MNNSKTNQQMNTSMGYPLTVYDECNKFQLIVPTLDANIMLWCIGQLSLLNDSNGCKHLFWQPNDKSNVRILLNNYDYGHLFKYLQCQRKCSVYIGEGTLKKYNLTISTSFDNFLDLTPSEEKESLCREDAHEDPVSPKAGSEEEISPNSTSNVVVSRECLDNFMKQLLKLEESLNKLELEQKVTNKEPNHRISGTIDIPEDRSELVNFFTELKTVKQLEDVFQRYHDYERLSQECDSKTEIASDHSKKETKIEVEPPNERSLQITMNQRDNSLYFQLFNNTNSVLAGNCKLKFTDAGDKPTTQIIDMGPHEIGIKEYKEYRYFPYALDLEAGSTIEIENQYGEVIFLGKYGSSPMINLRPPSRLSAESLQASQEPFYSFQIDTLPELDDDDIISTDISLSYDGDDNEKALTWEEL
notes: Atg19, budding yeast, phospho-mimetic mutant S390D, S391D, S396D; also called purified recombinant Atg19^3D; source: E. coli BL21(DE3), expressed as GST–Atg19^3D from pGEX-4T.1, purified (GSH beads, thrombin elution, Superdex200); not shown: GST, N-terminal, cleaved
In the case of B2, in the test with GST–Atg11^685–1178, the binding result is given as “binds”.

B3: GST–mTagBFP–Atg19^3D (natural protein, budding yeast, UniProt P35193 1-415, looked up)
chain: MNNSKTNQQMNTSMGYPLTVYDECNKFQLIVPTLDANIMLWCIGQLSLLNDSNGCKHLFWQPNDKSNVRILLNNYDYGHLFKYLQCQRKCSVYIGEGTLKKYNLTISTSFDNFLDLTPSEEKESLCREDAHEDPVSPKAGSEEEISPNSTSNVVVSRECLDNFMKQLLKLEESLNKLELEQKVTNKEPNHRISGTIDIPEDRSELVNFFTELKTVKQLEDVFQRYHDYERLSQECDSKTEIASDHSKKETKIEVEPPNERSLQITMNQRDNSLYFQLFNNTNSVLAGNCKLKFTDAGDKPTTQIIDMGPHEIGIKEYKEYRYFPYALDLEAGSTIEIENQYGEVIFLGKYGSSPMINLRPPSRLSAESLQASQEPFYSFQIDTLPELDDDDIISTDISLSYDGDDNEKALTWEEL
notes: Atg19, budding yeast, phospho-mimetic mutant S390D, S391D, S396D; also called GST–BFP–Atg19^3D; Atg19^3D-decorated beads; not shown: GST, N-terminal, kept; mTagBFP, N-terminal, kept
Turning to B3, the binding result with StrepII–GFP–Atg11 was “binds”.
